In paper PMC4166567 one finds density of the co-immunoprecipitated band (DU), cells with fenoldopam and density of the co-immunoprecipitated band (DU), control cells data, which are given here for three substances.

In experiment [1] the target is caveolin-1 (Cav-1), endogenous in human renal proximal tubule (hRPT) cells (human (endogenous in hRPT cells)) (UniProt Q03135). Briefly: co-IP.
The target of experiment [2] is adenylyl cyclase 5/6 (AC5/6), endogenous in HEK-293 cells (human (endogenous in HEK-293)) (UniProt O95622). Briefly: co-IP.

Sequence of UniProt Q03135 (Q03135 whole entry): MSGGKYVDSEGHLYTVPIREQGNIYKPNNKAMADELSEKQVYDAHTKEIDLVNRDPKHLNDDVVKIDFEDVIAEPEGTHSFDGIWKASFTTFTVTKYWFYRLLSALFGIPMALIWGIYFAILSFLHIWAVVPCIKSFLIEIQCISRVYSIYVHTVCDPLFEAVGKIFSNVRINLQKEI

In experiment [1], “adenylyl cyclase 5/6 (AC5/6), endogenous in human renal proximal tubule (hRPT) cells (from UniProt O95622 1-1261) (enzyme)” had a density of the co-immunoprecipitated band (DU), cells with fenoldopam of 148 DU and a density of the co-immunoprecipitated band (DU), control cells of 70.3 DU.

“human dopamine D1 receptor, Myc-tagged, heterologously expressed in HEK-293 cells (HEK-hD1R) (from UniProt P21728 1-446)”: in experiment [2], the density of the co-immunoprecipitated band (DU), cells with fenoldopam turned out to be 41.9 DU.

The substance “human dopamine D5 receptor, V5-tagged, heterologously expressed in HEK-293 cells (HEK-hD5R) (from UniProt P21918 1-477)” showed a density of the co-immunoprecipitated band (DU), cells with fenoldopam in experiment [2] of 76.2 DU.
